Measured values from patent US20200369772A1 (ABBA THERAPEUTICS, published 2020).
Changes are numbered by the printed parent chain.

T1: human PD-L2 (full-length, on cells) (human, UniProt Q9BQ51 20-273)
T1 chain: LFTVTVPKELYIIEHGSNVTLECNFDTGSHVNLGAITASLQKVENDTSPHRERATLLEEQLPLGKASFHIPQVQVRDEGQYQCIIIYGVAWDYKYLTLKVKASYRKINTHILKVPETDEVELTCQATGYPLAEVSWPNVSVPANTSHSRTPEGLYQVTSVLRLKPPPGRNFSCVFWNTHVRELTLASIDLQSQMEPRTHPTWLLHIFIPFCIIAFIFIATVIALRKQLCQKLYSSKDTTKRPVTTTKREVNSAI

T2: recombinant human PD-L2-Fc-biotin (human, UniProt Q9BQ51 20-220, biotin)
T2 chain: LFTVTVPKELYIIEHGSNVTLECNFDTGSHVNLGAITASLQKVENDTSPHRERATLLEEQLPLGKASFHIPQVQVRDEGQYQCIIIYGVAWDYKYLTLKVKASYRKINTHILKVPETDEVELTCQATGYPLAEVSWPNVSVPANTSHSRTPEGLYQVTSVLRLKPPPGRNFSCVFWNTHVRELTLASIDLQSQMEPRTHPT

T3: human PD-L2 (full-length, on cells) (human, UniProt Q9BQ51 20-273)
T3 construct: whole, on cells; CHO-K1 cells stably expressing full-length human PD-L2; also endogenous on NCI-H226 and transfected in Jurkat cells; also called hPD-L2; CHO-K1/hPD-L2
T3 sequence (looked up): T1 chain

T4: mouse PD-L2 (full-length, on cells) (mouse, UniProt Q9WUL5 20-247)
T4 construct: whole, on cells; HEK293 cells stably expressing full-length mouse PD-L2
T4 sequence (looked up): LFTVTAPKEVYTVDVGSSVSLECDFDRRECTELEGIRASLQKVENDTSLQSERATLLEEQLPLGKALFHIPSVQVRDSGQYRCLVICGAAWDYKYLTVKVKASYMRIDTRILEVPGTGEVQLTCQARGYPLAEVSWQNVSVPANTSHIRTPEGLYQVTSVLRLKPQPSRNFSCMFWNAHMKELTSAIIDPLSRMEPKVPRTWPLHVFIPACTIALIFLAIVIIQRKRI

B1: 11C11-H5 (antibody, V domains shown)
VH: QVQLVESGGGVVQPGRSLRLSCAASGFAFSAYGMHWVRQAPGKGLEWVAISWYDGSNNYHADSVKGRFTISRDSSKNTLYLQMNSLRAEDTAVYYCAKSIGVARHYYYGMDVWGQGTTVTVSS
VL: SYELTQPPSVSVSPGQTASITCSGEELGDKYACWYQQKPGQSPVLVIYQDSKRPSGIPERFSGSNSGNAATLTISGTQAMDEADYYCQAWDSITVVFGGGTKLTVLG
notes: Both formats under this entry
B2: 19C3-B3 (antibody, V domains shown)
VH: B1 VH
VL: B1 VL with V44L, V96I
notes: Both formats under this entry; also called 19C3-C3
B3: 2C4-E4 (antibody, V domains shown)
VH: QVQLVQSGAEVKKPGASVKVSCKASGYTFTGYVMHWVRQAPGQRLEWMGWINADNGITKYSQKFQGRVTITRDTSASTAYMELTNLRSEDTAVYYCARATRGFGEFYFDYWGQGNLVTVSS
VL: DIQMTQSPSTLSASVGDRVTITCRASQTISSWLAWYQQKPGKAPNLLIYKASSLESGVPSRFSGSGSGTEFTLTISSLQPDDFATYYCQQYYSYWTFGQGTKVEIK
notes: Both formats under this entry
B4: 8B5-B1 (antibody, V domains shown)
VH: EVQLLESGGGLVQPGGSLKLSCAASGFTFSSYAMFWVRQAPGEGLAWVSAITGSGDHTYYADSVKDHFTISRDNSKNTLYLQMNSLKAEDTAVYYCAKDASGNSYGFPYWYFDLWGRGTLVTVSS
VL: QSALTQPASVSGSPGQSITISCTGTSSDVAGYNFVSWYQHHPGKTPKLMIYDVTNRPSGVSTRFSGSKSGNTASLTISGLQAEDEADYYCSSFTSATTLVFGGGTKLTVLG
notes: Both formats under this entry
B5: 1A1-C2 (antibody, V domains shown)
VH: QVQLQESGPGLVKPSGTLSLTCAVSGGSIGSSYWWTWIRQSPGKGLEWIGEIFHSGPTNYTPSLKSRVTISVDKSKNQFSLQLRSVTAADTAVYYCARTTGTTGFYYGMDVWGQGTTVTVSS
VL: EVVLTQSPATLYVTPGERVTLSCRASQSVSSNLAWYQQKPGQAPRLLIYGASTRATGIPARFSGSGSGTEFTLTISSLQSEDFAVYYCQQFNNWPRTFGLGTKVEIT

Biological target: T1, human PD-L2 (full-length, on cells)
Assay: blocking of hPD-1 binding to CHO-K1/hPD-L2 cells
Outline: (§1)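 Human PD-L2 was stably expressed in CHO-K1 cells, and 1.5×10⁵ of these cells were exposed to serially diluted antibody (0.25 ng/ml-4 μg/ml) for 30 min at 4° C and then washed. Recombinant human PD-1-mouse Fc was added at 0.5 μg/ml for 30 min at 4° C, followed by fluorochrome-conjugated anti-mouse IgG2a (1:200) for 20 min at 4° C.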

| IC50 [nM] | Binder |
| --- | --- |
| 0.41 | B1 |
| 0.43 | B2 |
| 0.53 | B3 |
| 0.94 | B4 |
| 0.49 | B5 |

Biological target: T2, recombinant human PD-L2-Fc-biotin
Assay: blocking of hPD-L2 binding to HEK293-hPD-1 cells
Outline: (§2)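 Recombinant human PD-L2-Fc-biotin (5 ng/ml, 100 pM) was preincubated in 100 μl with serially diluted antibody (0.03 ng/ml-0.5 μg/ml) for 60 min at 4° C, and the mixture was then placed on 1.5×10⁵ HEK293 cells stably expressing human PD-1 for 30 min at 4° C. Ligand bound to the cells was detected by flow cytometry after 20 min at 4° C with fluorochrome-conjugated streptavidin, and control wells set the 0% and 100% binding levels. The IC50 was obtained by non-linear curve fitting in GraphPad Prism.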

| IC50 [nM] | Binder |
| --- | --- |
| 0.012 | B1 |
| 0.013 | B2 |
| 0.02 | B3 |
| 0.017 | B4 |
| 0.03 | B5 |

biological target: T3, human PD-L2 (full-length, on cells); assay: FACS binding on cells expressing human PD-L2 (per the examples)

| binding result | Binder |
| --- | --- |
| binds | B2 |
| binds | B3 |

biological target: T3, human PD-L2 (full-length, on cells); assay: hybridoma supernatant screen on cells expressing human PD-L2

| binding result | Binder |
| --- | --- |
| binds | B1 |
| binds | B4 |
| binds | B5 |

biological target: T5, human PD-L1 (full-length, on cells) (human, UniProt Q9NZQ7 19-290); assay: FACS on HEK293 cells stably expressing full-length human PD-L1
T5 construct: whole, on cells; HEK293 cells stably expressing full-length human PD-L1
Method: (§3) The ability of anti-PD-L2 antibodies binding to mouse PD-L2, human PD-L1 or cyno PD-L2 was determined by FACS. HEK293 cells stably expressing full-length monkey PD-L2, mouse PD-L2 or human PD-L1 were established, subcloned and verified. For binding assay, 1.5×10⁵ cells in 100 μl of FACSwash buffer were incubated with individual anti-PD-L2 antibodies (0.5 μg/ml) for 30 min. After three times of washing, the cells were re-suspended in FACSwash buffer containing FITC-labelled goat-anti-rat IgG (Thermo Fisher, 1:1000) or APC-labelled goat-anti-ratIgG (Biolegend, Clone Poly4054) at a 1:2000 dilution for 20 min at 4° C., washed three times and subsequently subjected to FACS analysis. FACS data was analysed using FlowJo Software and depicted as histograms including secondary antibody only controls.

T5 sequence (Q9NZQ7 19-290): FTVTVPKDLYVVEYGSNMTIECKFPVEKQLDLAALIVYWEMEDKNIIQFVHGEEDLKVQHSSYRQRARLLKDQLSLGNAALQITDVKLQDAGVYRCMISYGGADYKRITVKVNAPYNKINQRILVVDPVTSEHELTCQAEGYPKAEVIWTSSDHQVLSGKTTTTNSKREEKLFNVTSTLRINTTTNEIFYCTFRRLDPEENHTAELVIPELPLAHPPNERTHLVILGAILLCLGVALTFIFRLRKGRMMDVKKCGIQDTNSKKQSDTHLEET

| binding result | Binder |
| --- | --- |
| no binding (tested: 0.5 µg/ml) | B1 |
| no binding (tested: 0.5 µg/ml) | B2 |
| no binding (tested: 0.5 µg/ml) | B3 |
| no binding (tested: 0.5 µg/ml) | B4 |
| no binding (tested: 0.5 µg/ml) | B5 |

Biological target: T2, recombinant human PD-L2-Fc-biotin
Assay: FACS blocking of hPD-L2 binding to HEK293T-hPD-1; low antigen concentration
Outline: as §2

| IC50 [nM] | Binder |
| --- | --- |
| 0.0149 | B1 |
| 0.0151 | B2 |
| 0.0215 | B3 |
| 0.0563 | B4 |
| 0.0408 | B5 |

Biological target: T1, human PD-L2 (full-length, on cells)
Assay: FACS, NCI-H226 cells
Outline: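 Binding to endogenous PD-L2 on NCI-H226 human lung squamous carcinoma cells (1.5×10⁵) was measured by flow cytometry on a BD FACSCalibur. They were then stained with APC-labelled goat anti-rat IgG (1:2000) for 20 min at 4° C. Binding EC50 came from non-linear fitting of percentage of maximal binding against concentration in GraphPad Prism.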

| EC50 [nM] | Binder |
| --- | --- |
| 0.131 | B1 |
| 0.102 | B2 |
| 0.134 | B3 |
| 1.52 | B4 |
| 0.254 | B5 |

biological target: T4, mouse PD-L2 (full-length, on cells); assay: FACS on HEK293 cells stably expressing full-length mouse PD-L2
Method: as §3

| binding result | Binder |
| --- | --- |
| no binding (tested: 0.5 µg/ml) | B1 |
| no binding (tested: 0.5 µg/ml) | B2 |
| no binding (tested: 0.5 µg/ml) | B3 |
| no binding (tested: 0.5 µg/ml) | B4 |
| no binding (tested: 0.5 µg/ml) | B5 |

Biological target: T1, human PD-L2 (full-length, on cells)
Assay: FACS binding to CHO-K1 cells expressing human PD-L2
Outline: (§4)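 Binding to CHO-K1 cells stably expressing full-length human PD-L2 was measured by flow cytometry on a BD FACSCalibur. They were then stained for 20 min at 4° C with APC-labelled anti-rat IgG or anti-human IgG Fc, matching the antibody format. Binding EC50 came from non-linear curve fitting of percentage of maximal binding against concentration in GraphPad Prism.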

| EC50 [nM] | Binder |
| --- | --- |
| 0.81 | B1 |
| 0.44 | B2 |
| 0.45 | B3 |
| 1.09 | B4 |
| 0.62 | B5 |

Biological target: T1, human PD-L2 (full-length, on cells)
Assay: FACS, CHO-K1 expressing human PD-L2
Outline: as §4

| EC50 [nM] | Binder |
| --- | --- |
| 0.346 | B1 |
| 0.311 | B2 |
| 0.485 | B3 |
| 2.18 | B4 |
| 0.6 | B5 |

Biological target: T1, human PD-L2 (full-length, on cells)
Assay: FACS blocking of PD-1 binding to CHO-K1/hPD-L2; high antigen concentration
Outline: as §1

| IC50 [nM] | Binder |
| --- | --- |
| 0.527 | B1 |
| 0.454 | B2 |
| 0.612 | B3 |
| 2.02 | B4 |
| 0.706 | B5 |
